Laboratory results reported in patent publication US20150147384A1 (MIT, published 2015).
No end group written: not given here.

Each binder was assayed against P-glycoprotein (UniProt P08183 1-1280) (assay: cell-based or functional assay).
Sequence of P-glycoprotein (P08183 whole entry): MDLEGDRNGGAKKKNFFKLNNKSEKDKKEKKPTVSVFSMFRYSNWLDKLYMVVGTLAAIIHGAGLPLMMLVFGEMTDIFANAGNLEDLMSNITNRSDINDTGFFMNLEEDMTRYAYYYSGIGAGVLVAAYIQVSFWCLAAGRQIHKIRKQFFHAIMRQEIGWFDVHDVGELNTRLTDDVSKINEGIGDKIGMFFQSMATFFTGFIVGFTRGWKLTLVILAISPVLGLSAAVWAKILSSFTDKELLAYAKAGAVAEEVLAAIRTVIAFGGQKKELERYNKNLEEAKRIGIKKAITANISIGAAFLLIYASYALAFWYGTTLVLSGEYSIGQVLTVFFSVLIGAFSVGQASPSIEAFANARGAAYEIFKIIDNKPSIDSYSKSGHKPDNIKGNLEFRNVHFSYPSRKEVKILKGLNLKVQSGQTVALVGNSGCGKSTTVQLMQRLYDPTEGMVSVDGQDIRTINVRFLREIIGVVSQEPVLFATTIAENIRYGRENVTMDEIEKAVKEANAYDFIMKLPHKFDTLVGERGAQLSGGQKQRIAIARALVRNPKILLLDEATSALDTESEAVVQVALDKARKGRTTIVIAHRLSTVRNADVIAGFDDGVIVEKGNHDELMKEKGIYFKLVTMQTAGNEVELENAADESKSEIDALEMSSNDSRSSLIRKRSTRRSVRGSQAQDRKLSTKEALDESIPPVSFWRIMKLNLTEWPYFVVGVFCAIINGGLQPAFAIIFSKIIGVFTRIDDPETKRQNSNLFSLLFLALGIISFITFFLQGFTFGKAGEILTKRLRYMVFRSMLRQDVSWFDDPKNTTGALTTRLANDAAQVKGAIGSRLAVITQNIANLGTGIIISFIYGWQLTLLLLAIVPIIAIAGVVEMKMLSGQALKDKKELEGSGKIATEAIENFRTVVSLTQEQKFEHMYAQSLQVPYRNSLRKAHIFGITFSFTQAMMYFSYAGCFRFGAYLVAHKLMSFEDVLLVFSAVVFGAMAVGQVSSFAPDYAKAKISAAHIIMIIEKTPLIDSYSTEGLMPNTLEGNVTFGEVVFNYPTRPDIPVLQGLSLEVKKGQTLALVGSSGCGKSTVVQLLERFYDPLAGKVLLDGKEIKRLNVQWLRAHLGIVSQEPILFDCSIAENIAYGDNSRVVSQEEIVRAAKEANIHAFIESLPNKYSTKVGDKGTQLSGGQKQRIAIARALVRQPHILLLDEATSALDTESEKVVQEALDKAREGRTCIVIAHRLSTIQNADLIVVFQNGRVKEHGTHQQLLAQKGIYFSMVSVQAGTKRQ
For KAAAAAA-NH2 [KAAAAAA-CONH2], the “Enhancement ratio of Rhodamine-123 transport against the control, peptide 0.02 mg/ml” value (from here on “Enhancement ratio … peptide 0.02 mg/ml”) was 1 ratio, the “Enhancement ratio of Rhodamine-123 transport against the control, peptide concentration given as 2 mg/ml (caption: 0.2 mg/mL)” value (“Enhancement ratio … (caption: 0.2 mg/mL)” below) was 1 ratio and the “Papp of Rhodamine-123 through a Caco-2 monolayer (basolateral to apical), peptide 0.02 mg/ml” value (“Papp … peptide 0.02 mg/ml” below) was 10.8 ×10⁻⁶ cm/s. For the same binder, the “Papp of Rhodamine-123 through a Caco-2 monolayer (basolateral to apical), peptide concentration given as 2 mg/ml (caption: 0.2 mg/mL)” value (shortened to “Papp … (caption: 0.2 mg/mL)”) was 10.5 ×10⁻⁶ cm/s.
With Ac-AAAAAAD-OH [acetyl-AAAAAAD-COOH] the “Enhancement ratio … peptide 0.02 mg/ml” value was 0.9 ratio, the “Enhancement ratio … (caption: 0.2 mg/mL)” value was 1.7 ratio and the “Papp … peptide 0.02 mg/ml” value was 10.1 ×10⁻⁶ cm/s. For the same binder, the “Papp … (caption: 0.2 mg/mL)” value was 18.4 ×10⁻⁶ cm/s.
With DAAAAAA-OH [DAAAAAA-COOH] the “Enhancement ratio … peptide 0.02 mg/ml” value was 1.2 ratio, the “Enhancement ratio … (caption: 0.2 mg/mL)” value was 1.4 ratio and the “Papp … peptide 0.02 mg/ml” value was 13 ×10⁻⁶ cm/s. The “Papp … (caption: 0.2 mg/mL)” value was 15.1 ×10⁻⁶ cm/s.
With Ac-AAAAAAK-NH2 [acetyl-AAAAAAK-CONH2] the “Enhancement ratio … peptide 0.02 mg/ml” value was 0.9 ratio, the “Enhancement ratio … (caption: 0.2 mg/mL)” value was 1.7 ratio and the “Papp … peptide 0.02 mg/ml” value was 10 ×10⁻⁶ cm/s. The “Papp … (caption: 0.2 mg/mL)” value was 18.2 ×10⁻⁶ cm/s.
